Test results taken from paper PMC8708005, “Poly(C)-binding Protein 2 Regulates the p53 Expression via Interactions with the 5′-Terminal Region of p53 mRNA”.
Where a chain is given by its changes, count along the chain named.

Columns and labels:
[1] = molecular target: T1, PCBP2 (poly(C)-binding protein 2, hnRNP E2) (UniProt Q15366 1-365); assay: EMSA; 4 °C 25 min, 2.5 mM Mg2+, yeast tRNA and BSA; EMSA: 25 mM NaH2PO4 pH 8.0, 50 mM NaCl, 25 mM KCl, 2.5 mM MgCl2, 10 mM imidazole, 0.5 mM DTT, 0.5 mM PMSF, 7% glycerol, 0.5 U/uL RNasin, 75 ng/uL BSA, 100 ng/uL yeast tRNA; 4 °C 25 min (also 25 °C 15 min, 37 °C 10 min); details: protein: recombinant; label: 5'-32P (EMSA); hairpins G56-C169 and U180-A218
T1 sequence (Q15366 whole entry): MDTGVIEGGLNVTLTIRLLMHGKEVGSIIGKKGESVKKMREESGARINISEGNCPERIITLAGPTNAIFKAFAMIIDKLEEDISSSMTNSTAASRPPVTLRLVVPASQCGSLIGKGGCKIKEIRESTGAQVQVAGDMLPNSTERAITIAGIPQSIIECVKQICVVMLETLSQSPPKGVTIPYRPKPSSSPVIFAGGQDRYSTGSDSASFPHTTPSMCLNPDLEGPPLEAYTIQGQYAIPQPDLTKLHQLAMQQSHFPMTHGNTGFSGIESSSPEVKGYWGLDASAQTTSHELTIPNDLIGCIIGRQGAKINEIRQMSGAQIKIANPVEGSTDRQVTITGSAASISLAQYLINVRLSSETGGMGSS

[2] = molecular target: T1, PCBP2 (poly(C)-binding protein 2, hnRNP …); assay: EMSA; 1000 and 2500 nM PCBP2, 4 °C; no change vs P1-Δ40p53; EMSA: 25 mM NaH2PO4 pH 8.0, 50 mM NaCl, 25 mM KCl, 2.5 mM MgCl2, 10 mM imidazole, 0.5 mM DTT, 0.5 mM PMSF, 7% glycerol, 0.5 U/uL RNasin, 75 ng/uL BSA, 100 ng/uL yeast tRNA; 4 °C 25 min (also 25 °C 15 min, 37 °C 10 min); details: protein: recombinant, label: 5'-32P
[3] = molecular target: T1, PCBP2 (poly(C)-binding protein 2, hnRNP …); assay: EMSA; 4 °C 25 min, 2.5 mM Mg2+; additional intermediate complexes; text also reports decreased binding ability at fixed protein (Fig 3c); EMSA: 25 mM NaH2PO4 pH 8.0, 50 mM NaCl, 25 mM KCl, 2.5 mM MgCl2, 10 mM imidazole, 0.5 mM DTT, 0.5 mM PMSF, 7% glycerol, 0.5 U/uL RNasin, 75 ng/uL BSA, 100 ng/uL yeast tRNA; 4 °C 25 min (also 25 °C 15 min, 37 °C 10 min); details: protein: recombinant; label: 5'-32P; shortened hairpin; C74-G144 pair replaces U57-G168
[4] = molecular target: T1, PCBP2 (poly(C)-binding protein 2, hnRNP …); assay: EMSA; no complex at 4-4000 nM; smeared shift at 5 and 10 uM; EMSA: 25 mM NaH2PO4 pH 8.0, 50 mM NaCl, 25 mM KCl, 2.5 mM MgCl2, 10 mM imidazole, 0.5 mM DTT, 0.5 mM PMSF, 7% glycerol, 0.5 U/uL RNasin, 75 ng/uL BSA, 100 ng/uL yeast tRNA; 4 °C 25 min (also 25 °C 15 min, 37 °C 10 min); details: protein: recombinant; label: 5'-32P; hairpin

B1: P1-Δ40p53 RNA (structured_RNA)
RNA: GGCUAGAGCCACCGUCCAGGGAGCAGGUAGCUGCUGGGCUCCGGGGACACUUUGCGUUCGGGCUGGGAGCGUGCUUUCCACGACGGUGACACGCUUCCCUGGAUUGGCAGCCAGACUGCCUUCCGGGUCACUGCCAUGGAGGAGCCGCAGUCAGAUCCUAGCGUCGAGCCCCCUCUGAGUCAGGAAACAUUUUCAGACCUAUGGAAACUACUUCCUGAAAACAACGUUCUGUCCCCCUUGCCGUCCCAAGCAAUG
- Kd [1]: 0.095 ± 0.006 µM

B2: P1-Δ40p53(S) RNA (structured_RNA)
RNA: B1 RNA with C81U, A83G
- binding result ([2]; AUG1 in double-stranded region): binds

B3: P1-Δ40p53(L) RNA (structured_RNA)
RNA: B1 RNA with U77A, C78A, C79G, A80C
- binding result ([2]; AUG1 in internal loop): binds

B4: P1-Δ40p53(Δ57) RNA (structured_RNA)
RNA: GGCUAGAGCCACCGUCCAGGGAGCAGGUAGCUGCUGGGCUCCGGGGACACUUUGCGCUUUCCACGACGGUGACACGCUUCCCGGUCACUGCCAUGGAGGAGCCCCCUCUGAGUCAGGAAACAUUUUCAGACCUAUGGAAACUACUUCCUGAAAACAACGUUCUGUCCCCCUUGCCGUCCCAAGCAAUG
- Kd [3]: 0.053 ± 0.006 µM

B5: isolated hairpin G56-C169 RNA (structured_RNA)
RNA: GUUCGGGCUGGGAGCGUGCUUUCCACGACGGUGACACGCUUCCCUGGAUUGGCAGCCAGACUGCCUUCCGGGUCACUGCCAUGGAGGAGCCGCAGUCAGAUCCUAGCGUCGAGC
- Kd [4]: > 4 µM
